Test results from patent US20080009038A1 (Chugai, published 2008).

T1: human Mp1 (human, UniProt P40238 26-491, limits assumed)
T1 construct: The analyses of section 1.6 used shMp1-FLAG and hMp1-Fc in ELISA, and CHO-human Mp1 and BaF3-human Mp1 cells; also called human Mpl; TPO receptor
T1 sequence (looked up): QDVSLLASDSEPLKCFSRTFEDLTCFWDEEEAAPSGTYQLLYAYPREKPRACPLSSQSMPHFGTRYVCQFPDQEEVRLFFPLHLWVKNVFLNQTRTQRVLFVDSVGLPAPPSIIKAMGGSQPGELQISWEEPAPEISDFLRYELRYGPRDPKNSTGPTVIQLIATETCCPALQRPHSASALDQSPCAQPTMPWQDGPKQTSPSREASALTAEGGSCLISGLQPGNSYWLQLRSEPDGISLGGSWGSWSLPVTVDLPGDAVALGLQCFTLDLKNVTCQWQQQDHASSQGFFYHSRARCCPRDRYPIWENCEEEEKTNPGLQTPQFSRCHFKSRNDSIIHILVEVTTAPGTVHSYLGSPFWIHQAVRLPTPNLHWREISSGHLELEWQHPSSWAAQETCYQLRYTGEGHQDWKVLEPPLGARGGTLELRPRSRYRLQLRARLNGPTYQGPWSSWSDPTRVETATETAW


These binders were tested against full-length human Mp1 expressed on BaF3 cells (human) (UniProt P40238) (assay: cell-based or functional assay).

| Binder | agonistic activity (EC50 value: pM) in BaF3-human Mpl, cell proliferation (WST-8) |
| --- | --- |
| VB16 diabody (scFv, V domains shown, part only, (Gly4Ser)1 linker; C-terminal FLAG tag) VH: QVQLQQPGTELVRPGASVKLSCKASGYTFTDYWVNWVKQRPGRGLEWIGRIHPYDSETHYNQKFKNKATLTVDKSSSTAYIQLSSLTSEDSAVYYCASGGWFASWGQGTLVTVSA VL: DIVMTQAAPSVPVTPGESVSISCRSSKSLLYSNGNTYLYWFLQRPGQSPQLLIYRMSNLASGVPDRFSGSGSGTAFTLTISSVEAEDVGVYYCMQHLEYPYTFGSGTKLEIK | 190 pM |
| TA136 sc(Fv)2 (scFv, part only; not given: linkers and FLAG tag, part only) scFv, part: DVQLQESGPGLVKPSQSLSLTCTVTGYSITSDYAWSWIRQLPGNKLEWMGYITYSGYSIYNPSLKSRISISRDTSKNQLFLQLNSVTTEDTATYYCVGGYDNMDYWGQGTSVTVSSQIVLTQSPAIMSASPGEKVTLTCSASSSVSSSHLYWYQQKPGSSPKLWIYSTSNLASGVPARFSGSGSGTSYSLTISNMETEDAASYFCHQWSSYPWTFGGGTKLEIKDVQLQESGPGLVKPSQSLSLTCTVTGYSITSDYAWSWIRQLPGNKLEWMGYITYSGYSIYNPSLKSRISISRDTSKNQLFLQLNSVTTEDTATYYCVGGYDNMDYWGQGTSVTVSSQIVLTQSPAIMSASPGEKVTLTCSASSSVSSSHLYWYQQKPGSSPKLWIYSTSNLASGVPARFSGSGSGTSYSLTISNMETEDAASYFCHQWSSYPWTFGGGTKLEIK | 54 pM |
| VB16 sc(Fv)2 (scFv, part only; not given: linkers and FLAG tag, part only) scFv, part: QVQLQQPGTELVRPGASVKLSCKASGYTFTDYWVNWVKQRPGRGLEWIGRIHPYDSETHYNQKFKNKATLTVDKSSSTAYIQLSSLTSEDSAVYYCASGGWFASWGQGTLVTVSADIVMTQAAPSVPVTPGESVSISCRSSKSLLYSNGNTYLYWFLQRPGQSPQLLIYRMSNLASGVPDRFSGSGSGTAFTLTISSVEAEDVGVYYCMQHLEYPYTFGSGTKLEIKQVQLQQPGTELVRPGASVKLSCKASGYTFTDYWVNWVKQRPGRGLEWIGRIHPYDSETHYNQKFKNKATLTVDKSSSTAYIQLSSLTSEDSAVYYCASGGWFASWGQGTLVTVSADIVMTQAAPSVPVTPGESVSISCRSSKSLLYSNGNTYLYWFLQRPGQSPQLLIYRMSNLASGVPDRFSGSGSGTAFTLTISSVEAEDVGVYYCMQHLEYPYTFGSGTKLEIK | 95 pM |
| TA136 diabody (scFv, V domains shown, part only, (Gly4Ser)1 linker; C-terminal FLAG tag) VH: DVQLQESGPGLVKPSQSLSLTCTVTGYSITSDYAWSWIRQLPGNKLEWMGYITYSGYSIYNPSLKSRISISRDTSKNQLFLQLNSVTTEDTATYYCVGGYDNMDYWGQGTSVTVSS VL: QIVLTQSPAIMSASPGEKVTLTCSASSSVSSSHLYWYQQKPGSSPKLWIYSTSNLASGVPARFSGSGSGTSYSLTISNMETEDAASYFCHQWSSYPWTFGGGTKLEIK | 3080 pM |

More lines, now with the values ahead:

| agonistic activity (EC50 value: pM) in BaF3-human Mpl, cell proliferation (WST-8) | Binder |
| --- | --- |
| 76 pM | VB45B diabody (scFv, V domains shown, part only, (Gly4Ser)1 linker; C-terminal FLAG tag) VH: QVQLQQSGPELVKPGASVKISCKASGYAFSSSWMNWVKQRPGKGLEWIGRIYPGDGETNNNGKFKGKATLTADKSSTTAYMQLSSLTSEDSAVYFCARGYGDYSFAYWGQGTLVTVSA VL: DIVMTQAAPSVPVTPGESVSISCRSSKSLLHSNGNTYLYWFLQRPGQSPQLLIYRMSNLASGVPDRFSGSGSGAAFTLRISRVEAEDVGVYYCMQHLEYPYTFGSGTKLEIK |
| 89 pM | VB140 diabody (scFv, V domains shown, part only, (Gly4Ser)1 linker; C-terminal FLAG tag) VH: QVQLQQSGPELVKPGASVKISCRAFGYAFSNSWMNWVKQRPGKGLEWIGRIYPGDGETNNNGKFKGKATLTADKSSSTAYMQLSSLTSEDSAVYFCARGYGDYSFAYWGQGTLVTVSA VL: DIVMTQAAPSVPVTPGESVSISCRSSKSLLHSNGNTYLYWFLQRPGQSPQLLIYRMSNLASGVPDRFSGSGSGAAFTLRISRVEAEDVGVYYCMQHLEYPYTFGSGTKLEIK |
| 30 pM | VB45B sc(Fv)2 (scFv, part only; not given: linkers and FLAG tag, part only) scFv, part: QVQLQQSGPELVKPGASVKISCKASGYAFSSSWMNWVKQRPGKGLEWIGRIYPGDGETNNNGKFKGKATLTADKSSTTAYMQLSSLTSEDSAVYFCARGYGDYSFAYWGQGTLVTVSADIVMTQAAPSVPVTPGESVSISCRSSKSLLHSNGNTYLYWFLQRPGQSPQLLIYRMSNLASGVPDRFSGSGSGAAFTLRISRVEAEDVGVYYCMQHLEYPYTFGSGTKLEIKQVQLQQSGPELVKPGASVKISCKASGYAFSSSWMNWVKQRPGKGLEWIGRIYPGDGETNNNGKFKGKATLTADKSSTTAYMQLSSLTSEDSAVYFCARGYGDYSFAYWGQGTLVTVSADIVMTQAAPSVPVTPGESVSISCRSSKSLLHSNGNTYLYWFLQRPGQSPQLLIYRMSNLASGVPDRFSGSGSGAAFTLRISRVEAEDVGVYYCMQHLEYPYTFGSGTKLEIK |
| 38 pM | VB140 sc(Fv)2 (scFv, part only; not given: linkers and FLAG tag, part only) scFv, part: QVQLQQSGPELVKPGASVKISCRAFGYAFSNSWMNWVKQRPGKGLEWIGRIYPGDGETNNNGKFKGKATLTADKSSSTAYMQLSSLTSEDSAVYFCARGYGDYSFAYWGQGTLVTVSADIVMTQAAPSVPVTPGESVSISCRSSKSLLHSNGNTYLYWFLQRPGQSPQLLIYRMSNLASGVPDRFSGSGSGAAFTLRISRVEAEDVGVYYCMQHLEYPYTFGSGTKLEIKQVQLQQSGPELVKPGASVKISCRAFGYAFSNSWMNWVKQRPGKGLEWIGRIYPGDGETNNNGKFKGKATLTADKSSSTAYMQLSSLTSEDSAVYFCARGYGDYSFAYWGQGTLVTVSADIVMTQAAPSVPVTPGESVSISCRSSKSLLHSNGNTYLYWFLQRPGQSPQLLIYRMSNLASGVPDRFSGSGSGAAFTLRISRVEAEDVGVYYCMQHLEYPYTFGSGTKLEIK |

What follows are binders tested against T1, human Mp1 (assay: hybridoma supernatants; ELISA on shMp1-FLAG and hMp1-Fc, flow cytometry on CHO-human Mp1 cells, BaF3-human Mp1 proliferation).
Experimental: MRL/MpJUmmCrj-lpr/lpr mice (hereinafter abbreviated as “MRL/lpr mice”; purchased from Charles River, Japan) were immunized; the primary immunization was carried out at eight weeks of age. For every single mouse, an emulsion containing 100 μg of shMPL-FLAG combined with Freud's complete adjuvant (H37 Ra; Beckton Dickinson), was administered subcutaneously as the primary injection. As a booster injection, an emulsion containing shMPL-FLAG (50 μg per mouse) combined with Freud's incomplete adjuvant (Beckton Dickinson) was administered subcutaneously. Three mice which have been immunized six times in total were subjected to a final injection of shMPL-FLAG (50 μg per mouse) through the caudal vein. Cell fusion was achieved by mixing the mouse myeloma P3-X63Ag8U1 cells (P3U1; purchased from ATCC) and mouse splenocytes using polyethylene glycol 1500 (Roche Diagnostics). Hybridoma selection in HAT medium began the following day and culture supernatants were obtained. Screening was carried out by ELISA using immunoplates with immobilized shMp1-FLAG or hMp1-Fc, and by a cell proliferation assay of BaF3-hMp1. Positive clones were isolated as single clones by limiting dilution and then cultured on a large scale. The culture supernatants were collected. Anti-human Mp1 antibody-producing hybridomas, VB22B, VB16, VB140, and VB45B, were obtained by this method.

| binding result | Binder |
| --- | --- |
| binds | anti-human Mp1 antibody VB22B (antibody, mouse IgG2b, V domains shown, Mouse monoclonal antibody from a hybridoma, tested as culture supernatant; they were cloned with primers for the mouse IgG2b and kappa constant regions) VH: QVQLQQSGPELVKPGASVKISCKASGYAFTNSWMNWVKQRPGKGLEWIGRIYPGDGETIYNGKFRVKATLTADKSSSTAYMDISSLTSEDSAVYFCARGYDDYSFAYWGQGTLVTVSA VL: DIVMTQAAPSIPVTPGESVSISCRSSKSLLHSNGNTYLYWFLQRPGQSPQLLIYRMSNLASGVPDRFSGSGSGTAFTLRISRVEAEDVGVYYCMQHIEYPFTFGSGTKLEIK |
